This is an account of results in patent publication US20230414703A1 (published 2023).

The chains are these.
B1: mouse PD-1 receptor (receptor, UniProt Q02242 25-167, looked up)
chain: LEVPNGPWRSLTFYPAWLTVSEGANATFTCSLSNWSEDLMLNWNRLSPSNQTEKQAAFCNGLSQPVQDARFQIIQLPNRHDFHMNILDTRRNDSGIYLCGAISLHPKAKIEESPGAELVVTERILETSTRYPSPSPKPEGRFQ

The target in one assay is human PD-1 on Jurkat cells (human, UniProt Q15116 25-288). The assay is described as follows: cell-based or functional assay.
human PD-1 on Jurkat cells, sequence (Q15116 25-288): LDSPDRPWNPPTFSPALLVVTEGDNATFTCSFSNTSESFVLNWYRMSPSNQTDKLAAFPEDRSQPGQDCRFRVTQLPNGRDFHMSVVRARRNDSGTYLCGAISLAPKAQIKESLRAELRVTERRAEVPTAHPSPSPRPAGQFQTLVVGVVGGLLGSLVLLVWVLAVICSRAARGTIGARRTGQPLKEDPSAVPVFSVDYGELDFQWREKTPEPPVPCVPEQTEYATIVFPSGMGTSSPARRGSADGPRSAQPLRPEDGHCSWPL
On to HHHQVYQVRSHWTGMHSGHD (Found by phage display) [peptide HD20], for which the “peak-fold inhibition (luciferase reporter expression)” value (from here on “peak-fold inhibition”) is roughly 1.5 fold.
Turning to QTRTVPMPKIHHPPWQNVVP (Found by phage display) [peptide QP20], the “peak-fold inhibition” value was roughly 1.5 fold.
Turning to WNLPASFHNHHIRPHEHEWIQ (also called WQ-21) [peptide WQ20], the “peak-fold inhibition” value is roughly 1.5 fold.
Take SSYHHFKMPELHFGKNTFHQ (Found by phage display) [peptide SQ20]: the “peak-fold inhibition” value was roughly 1.5 fold.

The target of the next assay is T1, soluble recombinant human PD-1 receptor (human, UniProt Q15116 25-167, limits assumed).
T1 construct: also called human PD-1 receptors
T1 sequence (Q15116 25-167 limits assumed): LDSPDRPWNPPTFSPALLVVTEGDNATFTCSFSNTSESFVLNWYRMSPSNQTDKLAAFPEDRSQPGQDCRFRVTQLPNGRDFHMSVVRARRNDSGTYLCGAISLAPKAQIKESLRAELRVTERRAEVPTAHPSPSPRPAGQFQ
In words: clonal phage ELISA, peptide on phage, PD-1 coated well. The source says: The TriCo-20™ (TRICO-20™) and TriCo-16™ (TRICO-16™) Phage Display Peptide Libraries (Creative Biolabs, 45-1 Ramsey Road, Shirley, NY 11967) were screened to identify binders of soluble recombinant human PD-1 receptor.
Take HHHQVYQVRSHWTGMHSGHD (Found by phage display) [peptide HD20]: the “Clonal Phase ELISA coated signal” value was 0.281.
On to QTRTVPMPKIHHPPWQNVVP (Found by phage display) [peptide QP20], for which the “Clonal Phase ELISA coated signal” value is 0.851.
As for WNLPASFHNHHIRPHEHEWIQ (also called WQ-21) [peptide WQ20], the “Clonal Phase ELISA coated signal” value amounted to 0.275.
For SSYHHFKMPELHFGKNTFHQ (Found by phage display) [peptide SQ20], the “Clonal Phase ELISA coated signal” value worked out at 0.284.

The target of the next assay is T1, soluble recombinant human PD-1 receptor. In words: BIACORE T-200 SPR, PD-1 immobilised on CM5, steady state. As to the method: (§1) 12,000 response units (RU) of human and 6000 RU of mouse PD-1 receptors were directly immobilized on flow cell 2 and flow cell 4 of the CM5 chip by amine coupling method (EDC/NHS). The un-occupied sites were blocked with 1 M ethanol amine. […] Flow cell 1 was kept blank and used for reference subtraction. Binding of analyte to the ligand was monitored in real time.
(§2) Due to fast on rate and off rate, KD was determined by steady state equilibrium kinetics.
(§3) Chi square (χ2) analysis was carried out between the actual sensorgram and a sensorgram generated from the BIANALYSIS® software (black line) to determine the accuracy of the analysis. A χ2 value within 1-2 is considered significant (accurate) and below 1 is highly significant (highly accurate).
(In general: In SPR one partner is held on a chip, and binding of the other changes the refractive index at the surface.)
Consider HHHQVYQVRSHWTGMHSGHD (Found by phage display) [peptide HD20], for which the Ka is 318000 M⁻¹ and the Kd (in general, the free concentration of one partner at which half of the binding sites on the other are occupied at equilibrium, for simple one-to-one binding) worked out at 3.41 µM.
On to QTRTVPMPKIHHPPWQNVVP (Found by phage display) [peptide QP20], for which the Ka came to 93600 M⁻¹ and the Kd was 10.7 µM.
The like results for WNLPASFHNHHIRPHEHEWIQ (also called WQ-21) [peptide WQ20] were, in that order, 3280 M⁻¹ and 305 µM.
With SSYHHFKMPELHFGKNTFHQ (Found by phage display) [peptide SQ20], the Ka worked out at 194000 M⁻¹ and the Kd amounted to 5.16 µM.

Another assay deals with B1. The assay is described as above. Here is the method: as §1, §2, §3
HHHQVYQVRSHWTGMHSGHD (Found by phage display) [peptide HD20] had a Ka of 4250 M⁻¹ and a Kd of 235 µM.
The molecule QTRTVPMPKIHHPPWQNVVP (Found by phage display) [peptide QP20] displayed a Ka of 18000 M⁻¹ and a Kd of 55.4 µM.
WNLPASFHNHHIRPHEHEWIQ (also called WQ-21) [peptide WQ20] displayed a Ka of 1310 M⁻¹ and a Kd of 761 µM.
SSYHHFKMPELHFGKNTFHQ (Found by phage display) [peptide SQ20] returned a Ka of 21400 M⁻¹ and a Kd of 46.8 µM.

The target in another assay is Mouse PD-L1 (mouse, UniProt Q9EP73 19-239, limits assumed). Described as above.
Mouse PD-L1, sequence (Q9EP73 19-239 limits assumed): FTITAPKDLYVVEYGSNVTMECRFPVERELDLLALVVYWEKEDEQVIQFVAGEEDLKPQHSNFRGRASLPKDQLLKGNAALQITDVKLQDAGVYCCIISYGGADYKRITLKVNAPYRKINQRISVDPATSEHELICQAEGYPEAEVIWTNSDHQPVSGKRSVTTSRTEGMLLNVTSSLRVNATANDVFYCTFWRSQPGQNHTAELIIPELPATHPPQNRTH
B1: the Ka came to 2.75e+06 M⁻¹ and the Kd amounted to 0.364 µM.
